The target of data set [1] is T1, LIG1 EE/AA (C-terminal, Δ261) (UniProt P18858 262-919, E346A;E592A). Kind of data set: X-ray crystallography; AMP, pre-catalytic (DNA-AMP); EDTA, no metal added; BLI: 20 mM HEPES pH 7.4, 200 mM NaCl, 0.5% BSA, 0.05% Tween 20, 40 nM DNA loaded, sensors hydrated at 20 C; crystals: 20 mM Tris-HCl pH 7.0, 200 mM NaCl, 1 mM DTT, 1 mM EDTA, 1 mM ATP, 1.4:1 DNA:protein, 20 C. The settings on record: protein: recombinant, tags: 6xHis, nicked duplex, blunt outer ends.

Data set [2] concerns the target T1, LIG1 EE/AA (C-terminal, Δ261). Kind of data set: X-ray crystallography; post-catalytic, nick sealed; EDTA, no metal added; BLI: 20 mM HEPES pH 7.4, 200 mM NaCl, 0.5% BSA, 0.05% Tween 20, 40 nM DNA loaded, sensors hydrated at 20 C; crystals: 20 mM Tris-HCl pH 7.0, 200 mM NaCl, 1 mM DTT, 1 mM EDTA, 1 mM ATP, 1.4:1 DNA:protein, 20 C. The conditions noted are these: protein: recombinant; tags: 6xHis; nicked duplex, blunt outer ends; 8-oxorG:A Hoogsteen pair; nick sealed in crystal.

A further data set addresses LIG1 wild-type (UniProt P18858 262-919). Kind of data set: X-ray crystallography; AMP, pre-catalytic (DNA-AMP); EDTA, no metal added; BLI: 20 mM HEPES pH 7.4, 200 mM NaCl, 0.5% BSA, 0.05% Tween 20, 40 nM DNA loaded, sensors hydrated at 20 C; crystals: 20 mM Tris-HCl pH 7.0, 200 mM NaCl, 1 mM DTT, 1 mM EDTA, 1 mM ATP, 1.4:1 DNA:protein, 20 C. The conditions noted are these: protein: recombinant; tags: 6xHis; nicked duplex, blunt outer ends; 8-oxoG:C Watson-Crick pair at nick.

Results on 4 molecules are retold here after article PMC12693511, “Processing of DNA single-strand breaks with oxidatively damaged ends by LIG1”.

T1 sequence (P18858 262-919 E346A/E592A): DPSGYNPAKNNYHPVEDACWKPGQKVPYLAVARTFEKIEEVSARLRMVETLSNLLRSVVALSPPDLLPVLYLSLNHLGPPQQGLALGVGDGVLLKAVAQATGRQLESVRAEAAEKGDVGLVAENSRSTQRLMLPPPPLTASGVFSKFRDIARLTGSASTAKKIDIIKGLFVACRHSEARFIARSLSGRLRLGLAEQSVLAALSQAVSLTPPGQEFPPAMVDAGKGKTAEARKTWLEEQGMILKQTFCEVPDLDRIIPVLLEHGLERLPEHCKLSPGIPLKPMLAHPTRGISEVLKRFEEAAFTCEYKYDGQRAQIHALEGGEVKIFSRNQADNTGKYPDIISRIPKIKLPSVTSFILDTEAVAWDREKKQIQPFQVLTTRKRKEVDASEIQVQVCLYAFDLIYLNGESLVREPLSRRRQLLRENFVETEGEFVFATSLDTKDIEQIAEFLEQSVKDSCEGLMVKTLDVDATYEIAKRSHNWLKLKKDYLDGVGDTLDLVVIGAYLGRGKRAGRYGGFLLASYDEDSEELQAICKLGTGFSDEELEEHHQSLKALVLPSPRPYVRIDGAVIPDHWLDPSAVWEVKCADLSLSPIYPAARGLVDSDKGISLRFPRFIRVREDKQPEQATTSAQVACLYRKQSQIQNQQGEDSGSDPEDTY
LIG1 wild-type, sequence (P18858 262-919): as the sequence (P18858 262-919 E346A/E592A) above, with A85E, A331E counted along it

B1: nick 3'-8-oxorG:C (mixed)
DNA 1: GCTGATGCGTG
DNA 2: GTCGGAC
DNA 3: GTCCGACCACGCATCAGC
modifications: 8-oxo-riboG at 3' end of strand 1 (nt 11), rest DNA; 5'-phosphate on strand 2 (5'-AMP in crystal)
For B1, the binding result in data set [1] (8-oxorG:C Watson-Crick pair at nick) is “binds”.

B2: nick 3'-8-oxorG:A (mixed)
DNA 1: GCTGATGCGTG
DNA 2: GTCGGAC
DNA 3: GTCCGACAACGCATCAGC
modifications: 8-oxo-riboG at 3' end of strand 1 (nt 11), rest DNA; 5'-phosphate on strand 2; strands 1 and 2 ligated in the crystal
With B2, in data set [2], the binding result is “binds”.

B3: nick 3'-8-oxodG:A (dsDNA)
DNA 1: GCTGATGCGTG
DNA 2: GTCGGAC
DNA 3: GTCCGACAACGCATCAGC
modifications: 8-oxodG at 3' end of strand 1 (nt 11); 5'-phosphate on strand 2 (5'-AMP in crystal)
In the case of B3, the binding result in data set [1] (8-oxoG:A Hoogsteen pair at nick) is reported as “binds”.

B4: nick 3'-8-oxodG:C (dsDNA)
DNA 1: GCTGATGCGTG
DNA 2: GTCGGAC
DNA 3: GTCCGACCACGCATCAGC
modifications: 8-oxodG at 3' end of strand 1 (nt 11); 5'-phosphate on strand 2 (5'-AMP in crystal)
For the molecule B4, the binding result (with LIG1 wild-type; in data set [1] (8-oxoG:C Watson-Crick pair at nick)) was “binds” each time.
